From US11162953B2, “Protein binding domains stabilizing functional conformational states of GPCRS and uses thereof” (priority 2010, dated 2021)
“Also recorded” adds a separate entry of the source. Where a name gives a salt, the structure may show the parent alone.

B1: NB80: β2AR-specific nanobody, SEQ ID NO:4; lead nanobody stabilizing the active state (protein, listed as Lama glama)
VHH: QVQLQESGGGLVQAGGSLRLSCAASGSIFSINTMGWYRQAPGKQRELVAAIHSGGSTNYANSVKGRFTISRDNAANTVYLQMNSLKPEDTAVYYCNVKDYGAVLYEYDYWGQGTQVTVSS

Legend:
β2AR [1] = biological target: T1, β2AR (Homo sapiens, UniProt P07550); type: binding
β2AR [2] = test: [3H]-DHA competition binding on β2AR reconstituted in HDL particles, with or without Gs or Nb80; parameters: species or system human; conditions: β2AR/HDL + Nb80 versus alone
β2AR [3] = biological target: T1, β2AR; test: Fluorescent (CPM) thermal stability assay of detergent-solubilized agonist-bound β2AR; parameters: made in house
Experimental: (§1) The effect of conformational selective nanobodies on the thermostability and the subsequent aggregation of the β2AR receptor was analyzed using a fluorescent thermal stability assay (FIG. 13) and size exclusion chromatography (FIGS. 14A and 14B).
The fluorescent thermal stability assay makes use of the thiol-specific fluorochrome N-[4-(7-diethylamino-4-methyl-3-coumarinyl)phenyl]maleimide (CPM) to measure the chemical reactivity of the native cysteines embedded in the protein interior as a sensor for the overall integrity of the folder state of membrane proteins (Alexandrov et al. 2008). For the fluorescent thermal stability assay, detergent-solubilized receptor (in 0.1% dodecylmaltoside, 100 mM NaCl and 20 mM Hepes pH 7.5) was pre-incubated with isoproterenol (10 μM) in the presence or absence of a 2:1 molar excess of Nb80 for one hour at RT. Samples were then mixed with CPM fluorophore and incubated for two minutes at temperatures ranging from 10° C. to 94° C. and fluorescence emission was collected. […] Unfolding transitions could be described by a simple two-state model, including the native (folded) and the denaturated state, representing the lower and upper plateaus of the melting curves.

β2AR [4] = biological target: T1, β2AR; test: Temperature-induced aggregation of agonist-bound β2AR analyzed by SEC; parameters: made in house; conditions: isoproterenol 10 μM, 2:1 molar excess of Nb80, 10 minutes at increasing temperatures
Experimental: as §1
We also analyzed the effect of Nb80 on the thermal unfolding and aggregation of the agonist-bound receptor by size exclusion chromatography (SEC). For this experiment, dodecylmaltoside-solubilized receptor was pre-incubated with isoproterenol (10 μM) in the presence or absence of a 2:1 molar excess of Nb80 for 45 minutes at RT. Samples were next incubated for 10 minutes at increasing temperatures and subsequently analyzed by SEC (FIGS. 14A and 14B).

dopamine D1 receptor = dopamine D1 receptor (Homo sapiens, UniProt P21728); test: Effect of Nb80 on unrelated receptor; type: binding; conditions: data not shown
Chain of dopamine D1 receptor (P21728 whole entry, species assumed): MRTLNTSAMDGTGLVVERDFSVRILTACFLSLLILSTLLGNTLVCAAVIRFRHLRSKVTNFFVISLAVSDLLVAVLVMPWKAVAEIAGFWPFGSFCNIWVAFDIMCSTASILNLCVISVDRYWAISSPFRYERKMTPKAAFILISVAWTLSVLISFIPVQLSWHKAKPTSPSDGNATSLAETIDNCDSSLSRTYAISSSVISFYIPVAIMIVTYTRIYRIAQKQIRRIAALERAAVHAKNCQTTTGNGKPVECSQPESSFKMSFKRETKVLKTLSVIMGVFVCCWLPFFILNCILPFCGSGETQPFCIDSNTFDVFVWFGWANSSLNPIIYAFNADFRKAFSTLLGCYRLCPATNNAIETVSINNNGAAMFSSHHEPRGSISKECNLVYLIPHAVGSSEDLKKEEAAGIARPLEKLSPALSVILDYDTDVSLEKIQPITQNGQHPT

β2AR-T4L [5] = test: [3H]-DHA competition binding on β2AR-T4L reconstituted in HDL particles, with or without Nb80; parameters: species or system human; conditions: β2AR-T4L/HDL + Nb80 versus alone
β2AR-T4L [6] = biological target: T2, β2AR-T4L (Homo sapiens, UniProt P07550, DEL231-262, form not given); test: as above; conditions: β2AR-T4L/HDL
T2 construct: The β2AR and β2AR-T4L (both truncated at position 365) purified as previously described (Rosenbaum et al. 2007); fused on or other part: T4 lysozyme inserted in place of the third intracellular loop between TM5 and TM6 as a crystallisation handle (published construct: residues 2-161, C54T/C97A); Reconstituted in HDL particles

β2AR [7] = biological target: T1, β2AR; test: [3H]-DHA competition binding on β2AR reconstituted in HDL particles, with or without Gs or Nb80; parameters: recombinant β2AR truncated at Gly365 (β2AR-365); made in house; host or cells: Sf9 insect cells; conditions: β2AR/HDL
β2AR [8] = biological target: T1, β2AR; conditions: agonist competition binding, Sf9 membranes
Text: The IC50 values used for calculations of Ki values were obtained from means of pIC50 values determined by nonlinear regression analysis using Prism (GraphPad Software, San Diego, Calif.) and the s.e. interval from pIC50±s.e.

β2AR [9] = test: Size exclusion chromatography of nanobody with purified agonist- or inverse agonist-bound β2AR; type: binding, human; conditions: 20 μM β2AR bound to agonist or inverse agonist, 40 μM nanobody
Experimental: The mixture was then analyzed by Size Exclusion Chromatography (SEC), which separates protein on the basis of size. Seven of the nanobodies bound to purified β2AR and migrated as a complex on SEC only in the presence of agonist and not an inverse agonist (an example is shown in FIG. 1, Panel a, FIGS. 3A, 3B, and FIG. 4).
Agonist selective nanobodies were identified by size exclusion chromatography following incubation of 20 μM agonist or inverse agonist-(carazolol-) bound β2AR-365N for one hour at RT in the absence or presence of 40 μM nanobody.

β2AR [10] = biological target: T1, β2AR; test: Monobromobimane fluorescence of purified mBBr-labeled β2AR; type: biochemical; parameters: made in house; conditions: 1 μM nanobody, β2AR bound to full agonist isoproterenol
Text: To investigate the effect of nanobodies on movement of the cytoplasmic domain of TM6 we labeled purified β2AR at C265 with monobromobimane (mBB-β2AR). […] In mBB-β2AR, the addition of agonist together with G protein results in larger fluorescent changes than either agonist or G protein alone. This is compatible with the cooperative interactions observed in agonist competition binding assays (Yao et al. 2009).
Purified β2AR was reacted with 1:1 equivalent of monobromobimane (mBBr, Invitrogen) in 100 mM NaCl, 20 mM HEPES, pH 7.5, 0.1% dodecyl maltoside and incubated overnight on ice in the dark. The fluorophore-labeled receptor was purified right before use by gel filtration on a desalting column equilibrated with the same buffer. […] All experiments were performed at 25° C. […] To determine the effect of nanobodies and ligands, three individual labeled protein samples were incubated with 1 μM nanobody or 10 μM Isoproterenol or both. Emission spectra of the samples were taken after 1 hour incubation.

human β1AR = human β1AR (Homo sapiens, UniProt P08588); test: [3H]-DHA competition binding on β1AR with or without Nb80
Chain of human β1AR (P08588 whole entry): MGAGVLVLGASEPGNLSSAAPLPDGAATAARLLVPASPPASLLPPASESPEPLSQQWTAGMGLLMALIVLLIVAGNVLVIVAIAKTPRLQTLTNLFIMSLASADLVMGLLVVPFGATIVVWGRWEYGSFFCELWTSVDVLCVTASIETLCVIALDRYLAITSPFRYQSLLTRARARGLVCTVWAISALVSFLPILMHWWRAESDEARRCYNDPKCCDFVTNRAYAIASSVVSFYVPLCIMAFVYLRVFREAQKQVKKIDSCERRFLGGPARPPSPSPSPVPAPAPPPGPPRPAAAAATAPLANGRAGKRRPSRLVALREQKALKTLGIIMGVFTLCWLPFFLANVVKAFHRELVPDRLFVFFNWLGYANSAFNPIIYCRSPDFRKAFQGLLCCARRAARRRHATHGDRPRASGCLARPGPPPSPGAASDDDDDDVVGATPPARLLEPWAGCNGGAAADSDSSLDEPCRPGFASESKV
Text: Active state stabilizing Nanobodies that are cross-reactive to related receptors can be used as a tool to stabilize a conformational state of those related receptors. […] Using the PISA server (Krissinel & Henrick, 2007) and based on the crystal structure of the Nb80-β2AR complex, 30 β2AR AA residues were identified to interact with Nb80 in the β2AR-Nb80 interface. […] The remaining interface residues are lysines in β2AR and have been substituted by arginines in β1AR corresponding to conserved substitutions (shown in grey boxes in FIG. 17). It thus appears that both receptors share a very similar binding site for Nb80. Based on this analysis, we also measured the effect of Nb80 on the affinity of β1AR for the agonist isoproterenol and the inverse agonist […] (FIG. 18).

Molecule | Potency shift (β2AR [1]; ratio of IC50 with irrelevant Nb to IC50 with 500 nM Nb80, 3H-DHA radioligand) | increase of isoproterenol affinity in the presence of Nb80 (β2AR [2]) [fold] | apparent melting temperature for β2AR with Nb80 (β2AR [3]; DDM-solubilized isoproterenol-bound β2AR, 12.0° C. without Nb80) [°C] | increase of melting temperature (Tm) of the agonist-bound receptor (β2AR [3]; isoproterenol 10 μM, 2:1 molar excess of Nb80) [°C] | effect on temperature-induced aggregation of agonist-bound receptor (SEC) (β2AR [4]) | effect of Nb80 on unrelated receptor (dopamine D1 receptor) | increase of isoproterenol affinity in the presence of Nb80 (β2AR-T4L [5]) [fold] | effect of Nb80 on affinity for the inverse agonist ICI-118,551 (β2AR-T4L [6]) | effect of Nb80 on affinity for the inverse agonist ICI-118,551 (β2AR [7]) | effect of Nb80 on β2AR affinity for ligands (β2AR [1]; full-length β2AR membranes, Nb80 versus irrelevant nanobody) | enhancement of the affinity of β2AR for the agonist isoproterenol in the presence of nanobody (β2AR [8]) | complex formation with β2AR on SEC (β2AR [9]) | nanobody-induced change of mBBr fluorescence (β2AR [10]) | effect of Nb80 on affinity of β1AR for CGP20712A (human β1AR) | effect of Nb80 on affinity of β1AR for the agonist isoproterenol (human β1AR)
CCC(NC(C)C)C(O)c1ccc(O)c2[nH]c(=O)ccc12 (stereo not drawn) [procaterol, procaterol hydrochloride] | 2.3 |  |  |  |  |  |  |  |  |  |  |  |  |  | 
B1 |  | 95 | 24 | 12 | protects the agonist-bound receptor against temperature-induced aggregation | No such effect | 60 | does not increase the affinity | does not increase the affinity; also recorded: little effect | increases β2AR affinity for agonists but not for antagonists | two- to thirty-fold | β2AR-agonist-Nb80 complex formation | larger changes were observed when both agonist and nanobody were added together; also recorded: stabilizes a more active state of the β2AR | does not change the affinity | increased affinity
